{"source": "paper PMC3154093", "about": "(Science (New York, N.Y.), 2011)", "binders": {"B1": {"name": "mouse RPTPσ sEcto-Fc (Fc fusion)", "chain": "EEPPRFIREPKDQIGVSGGVASFVCQATGDPKPRVTWNKKGKKVNSQRFETIDFDESSGAVLRIQPLRTPRDENVYECVAQNSVGEITIHAKLTVLREDQLPPGFPNIDMGPQLKVVERTRTATMLCAASGNPDPEITWFKDFLPVDPSASNGRIKQLRSGALQIESSEETDQGKYECVATNSAGVRYSSPANLYVRVRRVAPRFSILPMSHEIMPGGNVNITCVAVGSPMPYVKWMQGAEDLTPEDDMPVGRNVLELTDVKDSANYTCVAMSSLGVIEAVAQITVKSLPKAPGTPVVTENTATSITVTWDSGNPDPVSYYVIEYKSKSQDGPYQIKEDITTTRYSIGGLSPNSEYEIWVSAVNSIGQGPPSESVVTRTGEQAPASAPRNVQARMLSATTMIVQWEEPVEPNGLIRGYRVYYTMEPEHPVGNWQKHNVDDSLLTTVGSLLEDETYTVRVLAFTSVGDGPLSDPIQVKTQQGVPGQPMNLRAEAKSETSIGLSWSAPRQESVIKYELLFREGDRGREVGRTFDPTTAFVVEDLKPNTEYAFRLAARSPQGLGAFTAVVRQRTLQAISPKNFKVKMIMKTSVLLSWEFPDNYNSPTPYKIQYNGLTLDVDGRTTKKLITHLKPHTFYNFVLTNRGSSLGGLQQTVTARTAFNMLSGKPSVAPKPDNDGFIVVYLPDGQSPVTVQNYFIVMVPLRKSRGGQFPVLLGSPEDMDLEELIQDISRLQRRSLRHSRQLEVPRPYIAARFSILPAVFHPGNQKQYGGFDNRGLEPGHRYVLFVLAVLQKNEPTFAASPFSDPFQLDNPDPQPIVDGEEG"}}, "key": {"[1]": {"target": "Neurocan-alkaline phosphatase (UniProt P55066 23-1268, chondroitin sulfate glycosaminoglycan chains)", "sequence (P55066 23-1268)": "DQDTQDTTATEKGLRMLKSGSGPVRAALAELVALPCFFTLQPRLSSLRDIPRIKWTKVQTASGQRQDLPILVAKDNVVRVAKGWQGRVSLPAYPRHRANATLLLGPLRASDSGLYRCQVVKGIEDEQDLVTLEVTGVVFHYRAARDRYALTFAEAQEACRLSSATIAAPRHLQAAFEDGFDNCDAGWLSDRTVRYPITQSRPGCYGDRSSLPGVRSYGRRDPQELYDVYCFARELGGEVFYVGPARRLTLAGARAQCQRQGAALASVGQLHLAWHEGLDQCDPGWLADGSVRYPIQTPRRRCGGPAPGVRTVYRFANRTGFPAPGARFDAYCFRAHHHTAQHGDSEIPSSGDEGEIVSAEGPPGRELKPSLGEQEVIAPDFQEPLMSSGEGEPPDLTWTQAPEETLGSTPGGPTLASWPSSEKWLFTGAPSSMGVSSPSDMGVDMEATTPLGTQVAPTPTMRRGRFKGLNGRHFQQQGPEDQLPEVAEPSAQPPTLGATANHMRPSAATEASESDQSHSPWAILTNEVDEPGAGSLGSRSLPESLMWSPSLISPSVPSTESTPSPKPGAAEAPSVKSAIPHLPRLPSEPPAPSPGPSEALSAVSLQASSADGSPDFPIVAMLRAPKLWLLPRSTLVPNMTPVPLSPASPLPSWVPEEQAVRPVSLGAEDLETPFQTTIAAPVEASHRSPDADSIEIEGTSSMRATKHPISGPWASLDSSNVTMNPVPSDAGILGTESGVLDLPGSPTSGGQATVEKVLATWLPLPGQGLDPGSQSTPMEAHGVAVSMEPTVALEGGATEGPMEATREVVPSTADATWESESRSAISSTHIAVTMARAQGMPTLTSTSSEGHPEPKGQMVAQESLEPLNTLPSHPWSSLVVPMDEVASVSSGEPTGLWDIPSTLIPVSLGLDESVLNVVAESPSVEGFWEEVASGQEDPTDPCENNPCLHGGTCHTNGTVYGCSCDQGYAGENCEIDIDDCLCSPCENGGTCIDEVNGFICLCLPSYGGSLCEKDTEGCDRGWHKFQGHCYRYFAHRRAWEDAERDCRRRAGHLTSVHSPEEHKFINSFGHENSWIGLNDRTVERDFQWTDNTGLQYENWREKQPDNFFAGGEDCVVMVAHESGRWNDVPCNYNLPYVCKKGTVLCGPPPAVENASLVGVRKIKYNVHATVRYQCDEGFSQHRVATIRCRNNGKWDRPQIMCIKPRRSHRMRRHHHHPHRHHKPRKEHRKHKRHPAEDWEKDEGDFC", "experiment": "solid-phase binding assay"}, "[2]": {"target": "T1, glypican-2-AP (UniProt Q8BKV1 22-556, heparan sulfate glycosaminoglycan chains)", "T1 sequence (looked up)": "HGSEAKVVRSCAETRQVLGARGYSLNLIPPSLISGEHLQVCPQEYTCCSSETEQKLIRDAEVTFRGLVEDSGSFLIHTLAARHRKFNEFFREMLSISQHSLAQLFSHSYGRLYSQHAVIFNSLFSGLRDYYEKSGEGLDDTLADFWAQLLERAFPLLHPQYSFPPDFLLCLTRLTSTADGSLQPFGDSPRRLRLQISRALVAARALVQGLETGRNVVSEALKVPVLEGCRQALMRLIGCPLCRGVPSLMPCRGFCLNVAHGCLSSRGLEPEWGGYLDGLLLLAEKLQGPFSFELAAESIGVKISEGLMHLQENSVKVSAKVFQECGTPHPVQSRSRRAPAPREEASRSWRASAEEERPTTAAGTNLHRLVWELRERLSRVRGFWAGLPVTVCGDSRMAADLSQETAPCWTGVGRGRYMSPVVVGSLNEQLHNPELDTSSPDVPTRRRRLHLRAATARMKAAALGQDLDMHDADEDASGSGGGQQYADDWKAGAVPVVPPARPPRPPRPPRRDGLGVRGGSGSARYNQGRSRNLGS", "experiment": "solid-phase binding assay"}}, "data": [{"binder": "B1", "values": [{"measurement": "Kd", "setting": "[1]", "result": "~21", "unit": "nM"}, {"measurement": "Kd", "setting": "[2]", "result": "~10", "unit": "nM"}]}]}
